Assay results taken from the Human Domainome abundance scans (Beltran et al. 2025).
± gives the uncertainty stated by the source.

B1: V(D)J recombination-activating protein 2, residues 415 to 491; numbered along this chain, P55895 (parent)
chain: YWITCCPTCDVDINTWVPFYSTELNKPAMIYCSHGDGHWVHAQCMDLAERTLIHLSAGSNKYYCNEHVEIARALHTP

Variants of: B1
Test: abundance fitness (aPCA) (normalised: wild type 0, dead -1); higher = more abundant; growth selection in yeast, the domain comes from the species named
Conditions: Homo sapiens

| Variant | abundance fitness |
| --- | --- |
| YWITCCPTCDVDINTWVPFYSTELNKPAMIYCSHGDGHWVHAQCMDLAEMTLIHLSAGSNKYYCNEHVEIARALHTP [R50M] | 0.015 ± 0.089 |
| YWITCCPTCDVDINTWVPFYSTELNKPAMIECSHGDGHWVHAQCMDLAERTLIHLSAGSNKYYCNEHVEIARALHTP [Y31E] | -0.018 ± 0.095 |
| YWITCCPTCDVDINTWVPFYSTELNKPAMIYCSHGDGHWVHAQCMDLAERTLIHLSAGSNKYYCNEHVEITRALHTP [A71T] | 0.09 ± 0.1 |
| YWITCCPTCDVDINTWVPFYSTELNKPTMIYCSHGDGHWVHAQCMDLAERTLIHLSAGSNKYYCNEHVEIARALHTP [A28T] | -0.218 ± 0.28 |
| YWITCCPNCDVDINTWVPFYSTELNKPAMIYCSHGDGHWVHAQCMDLAERTLIHLSAGSNKYYCNEHVEIARALHTP [T8N] | 0.091 ± 0.18 |
| YWITCCPTCDVDINTWVPFYSTELNKPAMIYCSHGDGHWVHAQCMDLAERTLIHLSAGSNKYYCNEHVYIARALHTP [E69Y] | -0.328 ± 0.41 |
| YWITGCPTCDVDINTWVPFYSTELNKPAMIYCSHGDGHWVHAQCMDLAERTLIHLSAGSNKYYCNEHVEIARALHTP [C5G] | -0.392 ± 0.2 |
| YWITCCPTCDVDINTWVPFYSTELNKLAMIYCSHGDGHWVHAQCMDLAERTLIHLSAGSNKYYCNEHVEIARALHTP [P27L] | -0.861 ± 0.21 |
| YWITCCPTCDVDINTWVPFYSTELNKPAMIYCSHGDGHWVHAQCMDLAERTLIFLSAGSNKYYCNEHVEIARALHTP [H54F] | -0.602 ± 0.34 |
| TWITCCPTCDVDINTWVPFYSTELNKPAMIYCSHGDGHWVHAQCMDLAERTLIHLSAGSNKYYCNEHVEIARALHTP [Y1T] | -0.098 ± 0.25 |
| HWITCCPTCDVDINTWVPFYSTELNKPAMIYCSHGDGHWVHAQCMDLAERTLIHLSAGSNKYYCNEHVEIARALHTP [Y1H] | -0.399 ± 0.18 |
| FWITCCPTCDVDINTWVPFYSTELNKPAMIYCSHGDGHWVHAQCMDLAERTLIHLSAGSNKYYCNEHVEIARALHTP [Y1F] | -0.07 ± 0.11 |
| YWITCCPTCDVWINTWVPFYSTELNKPAMIYCSHGDGHWVHAQCMDLAERTLIHLSAGSNKYYCNEHVEIARALHTP [D12W] | -0.317 ± 0.28 |
| YWITCCPTCDVDINTPVPFYSTELNKPAMIYCSHGDGHWVHAQCMDLAERTLIHLSAGSNKYYCNEHVEIARALHTP [W16P] | -0.471 ± 0.41 |
| YWITCCPTCDVDINTLVPFYSTELNKPAMIYCSHGDGHWVHAQCMDLAERTLIHLSAGSNKYYCNEHVEIARALHTP [W16L] | -0.346 ± 0.2 |
| YWITCCPTCDVDINTWVPFYSTELNKPAMIYCSHGDGHWVHAQCMDLAERTLIHLVAGSNKYYCNEHVEIARALHTP [S56V] | 0.005 ± 0.048 |
| YWITCCPTCDVDINTWVPFYSTELNKPAMIYCSHGFGHWVHAQCMDLAERTLIHLSAGSNKYYCNEHVEIARALHTP [D36F] | -0.217 ± 0.16 |
| YWITCCPTCDVDINTWVPFYSTELNKPAMIYCSHGTGHWVHAQCMDLAERTLIHLSAGSNKYYCNEHVEIARALHTP [D36T] | -0.62 ± 0.45 |

| Variant | abundance fitness |
| --- | --- |
| YWITCCPTCDVDINTWVPFYSTELNKPAMIYCSHGDGHWVHAQCMDLAERTLIHLSAGSNKYYCNEHVEIAQALHTP [R72Q] | -0.085 ± 0.12 |
| YWITCCPTCDVDINTWVPFYSTELNKPAMIYCSHGDGHWVHAQCMDLAERTLIHLSAGSNKYYCNEHVEIARTLHTP [A73T] | 0.033 ± 0.088 |
| YWITCCPTCDVDINTWVPFYSTELNKPAMIYCSHGDGHWVHAQCMDLAERTLIHLSAGSNKYYCNEHVEIARYLHTP [A73Y] | -0.109 ± 0.17 |
| YWIICCPTCDVDINTWVPFYSTELNKPAMIYCSHGDGHWVHAQCMDLAERTLIHLSAGSNKYYCNEHVEIARALHTP [T4I] | -0.016 ± 0.1 |
| YWITCCPTCDVDINMWVPFYSTELNKPAMIYCSHGDGHWVHAQCMDLAERTLIHLSAGSNKYYCNEHVEIARALHTP [T15M] | -0.011 ± 0.3 |
| YWITCCPTCDVDINTWVPFYSTELNKPAMIYCSHGDGHWVHAQCMDLAERTLIHLSAGSNKYYCNEHVEIARALKTP [H75K] | -0.003 ± 0.1 |
| YWITCCPTCDVDINTWVPFYSTELNKPAMIYCSHGDGHWVHAQCMDLAERTLIHLSAGSNKYYCNEHVEIARALWTP [H75W] | -0.069 ± 0.064 |
| YWITCCPTCDVDINTWVPFYSTELNKPAMIYCSHGDGHWVHAVCMDLAERTLIHLSAGSNKYYCNEHVEIARALHTP [Q43V] | -0.116 ± 0.12 |
| YNITCCPTCDVDINTWVPFYSTELNKPAMIYCSHGDGHWVHAQCMDLAERTLIHLSAGSNKYYCNEHVEIARALHTP [W2N] | 0.12 ± 0.31 |
| YWITCCPTCDVDINTWVPFYSTESNKPAMIYCSHGDGHWVHAQCMDLAERTLIHLSAGSNKYYCNEHVEIARALHTP [L24S] | -0.153 ± 0.099 |
| YWITCCPTCDVDIKTWVPFYSTELNKPAMIYCSHGDGHWVHAQCMDLAERTLIHLSAGSNKYYCNEHVEIARALHTP [N14K] | -0.004 ± 0.42 |
| YWITCCPTCDVDINTWVPFYMTELNKPAMIYCSHGDGHWVHAQCMDLAERTLIHLSAGSNKYYCNEHVEIARALHTP [S21M] | -0.321 ± 0.44 |
| YWITCCPTCDVDINTWVPFYVTELNKPAMIYCSHGDGHWVHAQCMDLAERTLIHLSAGSNKYYCNEHVEIARALHTP [S21V] | -0.28 ± 0.12 |
| YWITCCPTCDVDINTWVPFYSTELNKPAMIYCSHGDGHWVHAQCMDLAKRTLIHLSAGSNKYYCNEHVEIARALHTP [E49K] | -0.279 ± 0.1 |
| YWITCCPTCDVDINTWVPFYSSELNKPAMIYCSHGDGHWVHAQCMDLAERTLIHLSAGSNKYYCNEHVEIARALHTP [T22S] | 0.096 ± 0.18 |
| YWITCCPTCDVDINTWVPFYSFELNKPAMIYCSHGDGHWVHAQCMDLAERTLIHLSAGSNKYYCNEHVEIARALHTP [T22F] | -0.181 ± 0.16 |
| YWITCCPTCDVDINTWVPFYSTELNKPAMIYCSHGDGHWVHAQCMDLAERTLIHLSAGSNQYYCNEHVEIARALHTP [K61Q] | 0.097 ± 0.36 |
| YWITCCPTCDVDINTWVPFYSTELNKPAMIYCSHGDGHWVHAQCMDLAERTLIHLSAGSNNYYCNEHVEIARALHTP [K61N] | -0.115 ± 0.29 |
